Measured values taken from article PMC6825267.
Like-named read-outs stand apart in the source and are kept apart here.

T1: RZ-1C (Arabidopsis thaliana, UniProt Q8RWN5 1-310)
T1 sequence: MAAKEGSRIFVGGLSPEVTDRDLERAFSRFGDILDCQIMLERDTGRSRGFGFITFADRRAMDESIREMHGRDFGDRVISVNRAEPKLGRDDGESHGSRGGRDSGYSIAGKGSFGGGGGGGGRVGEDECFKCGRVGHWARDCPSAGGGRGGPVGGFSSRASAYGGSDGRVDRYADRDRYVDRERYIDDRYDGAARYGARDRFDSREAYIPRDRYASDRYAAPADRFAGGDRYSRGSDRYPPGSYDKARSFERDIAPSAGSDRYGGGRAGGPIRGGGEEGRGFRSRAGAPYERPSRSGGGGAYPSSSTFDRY

T2: HIN1 1-267 (N-terminal, MYB/SANT domains) (Arabidopsis thaliana, UniProt F4J686 1-267)
T2 sequence: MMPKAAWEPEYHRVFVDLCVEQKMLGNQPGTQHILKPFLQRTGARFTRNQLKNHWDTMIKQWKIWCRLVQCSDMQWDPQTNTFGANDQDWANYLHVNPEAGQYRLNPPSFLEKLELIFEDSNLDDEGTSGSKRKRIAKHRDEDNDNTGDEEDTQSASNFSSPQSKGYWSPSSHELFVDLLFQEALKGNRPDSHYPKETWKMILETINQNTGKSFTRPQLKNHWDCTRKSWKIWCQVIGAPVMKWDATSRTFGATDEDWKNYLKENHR


How the values were obtained:
Assay in all cases: EMSA
[1] = biological target: T1, RZ-1C
[2] = biological target: T2, HIN1 1-267 (N-terminal, MYB/SANT …)
[3] = biological target: T1, RZ-1C; remark: listed apart in the source
[4] = biological target: T2, HIN1 1-267 (N-terminal, MYB/SANT …); remark: listed apart in the source

Row | Binder | binding result [1] | binding result [2] | binding result [3] | binding result [4]
1 | UUUCGAGAAGAAGAAGACAUC (ssRNA) [M probe (GAA repeat, AT1G50740 intron 1 flank)] | binds | binds |  | 
2 | UUUCGACUUGAAGAUCUCAUC (ssRNA) [M2 probe (motif reduced to GAAGA)] |  |  | no binding | no binding
3 | UUUCGACUUCUUCUUGACAUC (ssRNA) [U probe (GAA repeat to CUU)] | no binding | no binding |  | 
